Measured values as given in the RNAGym collection of RNA variant scans (doi:10.1073/pnas.2313332121).

B1: TPR t1 (parent)
chain: GACCAAUCUGCCCUCAGAGCUCGAGAACAUCUUCGGAUGCAGAGGAGGCAGGCUUCGGUGGCGCGAUAGCGCCAACGUCCUCAACCUCCAAUGCAUCCCACCACAUGAUGAUGCCUGAAGAGCCUUGGUUUUUUG

Variants of: B1
Assay: polymerase ribozyme fitness, log enrichment relative to wild type (log ratio); higher = more active; in vitro selection for triplet polymerase activity
Outline: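 Libraries of mutants in each subunit of a heterodimeric triplet polymerase ribozyme were generated by PCR and transcribed. In triplicate, each went through one in vitro selection round: annealing with biotinylated primer, partner subunit and triplets; frozen incubation at −7 °C; gel excision of extended constructs; streptavidin-bead capture; RT-PCR. Fitness, taken from Illumina sequencing of input and output libraries, is the logarithm of a genotype's enrichment over wild-type enrichment, averaged across replicates with inverse-variance weights. The logarithm is base 2, and genotypes needed ≥10 input reads and ≥1 read per output to be kept.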

| Variant | polymerase ribozyme fitness (log ratio) |
| --- | --- |
| GACCAAUCUGCCCUCAGAGCUCGAGAAGAUCUUCGGAUGCAGAGGAGGCAGACUUCGGUGGCGCGAUAGUGCCAACGUCAUCAACCUCCAAUGCAUCCCACCACAUGAUGAUCCCUGAAGAGCCUUGGUUUUUUG [C28G G52A C70U C80A G113C] | -7.14 |
| GACCAAUCUGCCCUCAGAGCUCGAGAAGAUCUUCGGAUGCAGAGGAGGCAGGCUUCGGUGGCACGAUAGCGCCAACGUCCUCAACCUCCAAUGCAUCCCACCACAUGAUGAUGCCUGAAGAGCCUUGGUUUUUUG [C28G G63A] | -4.42 |
| GACCAAUCUGCCCUCAGAGCUCGAGAAGAUCUUCGGAUGCAGAGGAGGCAGGCUUAGGUGGCGCGAUAGCGCCAACGUCCUCAACCUCCAAUGCAUCCCACCACAUGAUUAUGCCUGAAGAGCUUUGGUUUUUUG [C28G C56A G110U C124U] | -0.0721 |
| GACCAAUCUGCCCUCAGAGCUCGAGAAGAUCUUCGGAUGCAGAGGAGGCAGGCUUCCGUGGCGCGAUAGCGCCAACGUCCUCCACCUCCAAUGCAUCCCACCACAUGAUGAUGCCUGAAGAGACUUGGUUUUUUG [C28G G57C A83C C123A] | -2.8 |
| GACCAAUCUGCCCUCAGAGCUCGAGAAGAUCUUCGGAUGCAGAGUAGGCAGGCUUCGGUGGCGCGAUAGCGCCAACGUCCUCAACCUCCAAUGCAUCCCACCACAUGAUGAUGCCUGAAGAGCCUUGGUUUUUUG [C28G G45U] | -4.17 |
| GACCAAUCUGCCCUCAGAGCUCGAGAAGAUCUUCGGAUGCAGAGGAGGCAGGCUUCGGUGGCGCGAUAGCGCCAACGUCCUCAACCUCAAAUGCAUCCCACCACAUGAUGAUGCCUGAAGAGCCUUGGUUUUUUG [C28G C89A] | -4.51 |
| GACCAAUCUGCCCUCAGAGCUCGAGAAGAUCUUCGGAUGCAGAGGACGCAGGCUUCGGUGGCGCGAUAGCGCCAACGUCCUCAACCUCCAAUGCAUCCCACCACAUGAUGAUGCCUGAAGAGCCUUGGUUUUUUG [C28G G47C] | -3.69 |
| GACCAAUCUGCCCUCAGAGCUCGAGAAGAUCUUCGGAUGCAACGGAGGCAGGCUUCGGUGGCGCGAUAUCGCCAACGUCCUCAACCUCCAAUGCAACCCAUCACAUGAUGAUGCCUGAAGAGCUUUGGUUUUUUG [C28G G42A A43C G69U U96A C101U C124U] | -4.78 |
| GACCAAUCUGCCCUCAGAGCUCGAGAAGAUCUUCGGAUGCAGAGGAGGCAGGCUUCGGUGGCGCGAUAGCGUCAACGUCCUCAACCUCCAAUGCAUCCCACCACAUGAUGAUGCCUGAAGAGCCUUGGUUUUUUG [C28G C72U] | -3.07 |
| GACCAAUCUGCCCUCAGAGCUCGAGAAGAUCUUCGGAUGCAGAGGAGGCAGGCUUGGGUGGCGCGAUAGCGCCAACGUCCUCAACCUCCAAUGCAUCCCACCACAUGAUGAUGCCUGAAGAGCCUUGGUUUUUUG [C28G C56G] | -3.01 |
| GACCAAUCUGCCCUCAGAGCUCGAGAAGAUCUUCGGAUGCAGAGGAGGCAGGCUUUGGUGGCGCGAUAGCGCCAACGUCCUCAACCUCCAAUGCAUCCCACCACAUGAUGAUGCCUGAAGAGCCUUGGUUUUUUG [C28G C56U] | -2.39 |
| GACCAAUCUGCCCUCAGAGCUCGAGAAGAUCUUCGGAUGCAGAGGAGGCAGGCUUCUGUGGCGCGAUAGCGCCAACGUCCUCAACCUCCAAUGCAUCCCACCACAUGAUGAUGCCUGAAGAGCCUUGGUUUUUUG [C28G G57U] | -2.76 |
| GACCAAUCUGCCCUCAGAGCUCGAGAAGAUCUUCGGAUGCAGAGGAGGCAGGCUUCAGUGGCGCGAUAGCGCCAACGUCCUCAACCUCCAAUGCAUCCCACCACAUGAUGAUGCCUGAAGAGCCUUGGUUUUUUG [C28G G57A] | -4.66 |
| GACCAAUCUGCCCUCAGAGCUCGAGAAGAUCUUCGGAUGCAGAGGAAGCAGGCUUUGGUGGCGCGAUAGCGCCAACGUCCUCAACCUCCAAUGCAUCCCACCACAUGAUGAUGCCGGAAGAGCCUUGGUUUUUUG [C28G G47A C56U U116G] | -5.77 |
| GACCAAUCUGCCCUCAGAGCUCGAGAAGAUCUUCGGAUGCAGAGGAGGCAGGCUUGGGUGACGCGAUAGCGCCAACAUCCUCAACCUCCAAUGCAUCCCACCACAUGAUGAUGCCUGAAGAGCCUUGGUUUUUUG [C28G C56G G61A G77A] | -2.42 |
| GACCAAUCUGCCCUCAGAGCUCGAGAAGAUCUUCGGAUGCAGAGGAGGCAGGCUUCGGUGGCGCGAUAGCGCGAACGUCCUCAACCUCCAAUGCAUCCCACCAAAUGAUGCUGCCUGAAGAGCCUUGGUUUUUUG [C28G C73G C104A A111C] | -4.53 |
| GACCAAUCUGCCCUCAGAGCUCGAGAAGAUCUUCGGAUGCAGAGGAGGCAGGCUUCGGUGGCGCGAUAGCGACAACGUCCUCAACCUCCAAUGCAUCACACCACAUGAUGAUGCCUGAAGAUCCUUGGUUUUUUG [C28G C72A C98A G122U] | -5.55 |
| GACCAAUCUGCCCUCAGAGCUCGAGAAGAUCUUCGGAUGCAGAGGAGGCAGGCUUCGGUGGCACGAUAGCGCCAACGUCCUCACCCUCCAAUGCAUCCCACCACAUGAUGAUGCCUGAAGUGCCUUGGUUUUUUG [C28G G63A A84C A121U] | -3.21 |
| GACCAAUCUGCCCUCAGAGCUCGAGAAGAUCUUCGGAUGCAGAGGAGGCAGGCUUCGGUGGCGCGAUAGCGCCAAUGUCCUCAACCUCCAAUGCAUCCCACCACAUGAUGAUGCCUGAAGAGCCUUGGUUUUUUG [C28G C76U] | -3.02 |
| GACCAAUCUGCCCUCAGAGCUCGAGAAGAUCUUCGGAUGCAGAGGAGGCAGGCUUCGGUUGCGCGAUAGCGCCAACGUCUUCAACCUCCAAUGCAUCCCACCACAUGAUGAUGCUUGAACAGACUUGGUUAUUUG [C28G G60U C80U C115U G120C C123A U131A] | -6.73 |
| GACCAAUCUGCCCUCAGAGCUCGAGAAGAUCUUCGGAUGCAGAGGAGGCAGGCUUCGGUGGCGCGAUAGCGCCAACGUCCUCAACCUCCAAUGCAUCCCACCACAUGAUGAUGUCUGAAGAGCCUUGGUUUUUUG [C28G C114U] | -5.68 |
